Experimental findings from patent publication US20230002478A1 (published 2023) are described below.

The term Kd denotes the equilibrium constant for the complex coming apart.

Where “and” joins values, the source holds several entries; their conditions need not be identical. Equal values may be shown once. Read-outs that look alike come from different tables or passages of the source.

Holding throughout (assay): SPR
Test [1] concerns the target T1, SARS-CoV-2 spike protein, kappa variant (SPR, FIG. 28 Panel D) (SARS-CoV-2, UniProt P0DTC2 16-1213).
The target in test [2] is T2, SARS-CoV-2 spike protein, gamma variant (SPR, FIG. 28 Panel C) (SARS-CoV-2, UniProt P0DTC2 16-1213).
Test [3] has as its target T3, SARS-CoV-2 spike protein, beta variant (SPR, FIG. 28 Panel B) (SARS-CoV-2, UniProt P0DTC2 16-1213).
In test [4] the target is SARS-CoV-2 spike protein, Delta variant (SPR) (SARS-CoV-2, UniProt P0DTC2 16-1213).
Test [5] concerns the target T1, SARS-CoV-2 spike protein, kappa variant …. This is another data set of the same source.
Test [6] deals with T3, SARS-CoV-2 spike protein, beta variant …. This is another data set of the same source.
In test [7] the target is SARS-CoV-2 spike protein, wildtype variant (SPR, FIG. 28 Panel A) (SARS-CoV-2, UniProt P0DTC2 16-1213).
In test [8] the target is T2, SARS-CoV-2 spike protein, gamma variant …. This is another data set of the same source.
Test [9] has as its target SARS-CoV-2 S Trimer Alpha B.1.1.7 UK variant.
In test [10] the target is SARS-CoV-2 mutant trimer UK TB918-09.

B1: antibody 202-03 (Fc fusion)
chain: EVQLVESGGGLVQPGGSLRLSCAASGFTFSPSWMGWFRQAPGKEREFVATINEYGGRNYADSVKGRFTISADNSKNTAYLQMNSLKPEDTAVYYCARVDRDFDYWGQGTLVTVSS
On to B1, for which the equilibrium dissociation constant (Kd) is 0.272 nM in test [1]; under 0.073 nM in [2]; under 0.095 nM in test [3]; 0.312 nM in [4]; 0.105 nM in test [5]; under 0.05 nM in test [6]. Also, the Kd is under 0.064 nM in test [7] and under 0.041 nM in test [8].

B2: T8202-3 (TP37196F) (Fc fusion)
chain: B1 chain
In [9], B2 yielded a dissociation constant Kd of under 0.075 nM.

B3: 6-3 (Fc fusion)
chain: B1 chain
B3: in test [10], the dissociation constant (Kd) is 0.857 nM and 1.3 nM.

B4: antibody 339-031 (Fc fusion)
chain: EVQLVESGGGLVQPGGSLRLSCAASGSTFSINAMGWFRQAPGKEREFVAGITSSGGYTNYADSVKGRFTISADNSKNTAYLQMNSLKPEDTAVYYCAADGVPEYSDYASGPVWGQGTLVTVSS
Take B4: the equilibrium dissociation constant (Kd) was under 0.01 nM in test [1], under 0.0094 nM in [2], under 0.0096 nM in test [3] and under 0.011 nM in test [4].

B5: T8339-031 (Fc fusion)
chain: B4 chain
B5: the dissociation constant (Kd) in test [9] was under 0.011 nM.
